Paper PMC10553838 (PLOS Pathogens, 2023)

The binders below were run against F-actin (filamentous rabbit skeletal muscle α-actin) (rabbit, UniProt P68135 1-377) (assay: cell-based or functional assay).

Binder	F-actin-stimulated guanylate cyclase (cGMP synthesis) activity, 3 μM F-actin, against wild-type Pa-ExoY
Pa-ExoY (20-378) K347A (enzyme) LLRPADMQARALQDLFDAQGVGVPVEHALRMQAVARQTNTVFGIRPVERIVTTLIEEGFPTKGFSVKGKSSNWGPQAGFICVDQHLSKREDRDTAEIRKLNLAVAKGMDGGAYTQTDLRISRQRLAELVRNFGLVADGVGPVRLLTAQGPSGKRYEFEARQEADGLYRISRLGRSEAVQVLASPACGLAMTADYDLFLVAPSIEAHGSGGLDARRNTAVRYTPLGAKDPLSEDGFYGREDMARGNITPRTRQLVDALNDCLGRGEHREMFHHSDDAGNPGSHMGDNFPATFYLPRAMEHRVGEESVRFDEVCVVADRKSFSLLVECIAGNGYHFTAHPDWNVPLRPGFQEALDFFQRKV	~15 fold decrease
Pa-ExoY (20-378) H352A (enzyme) LLRPADMQARALQDLFDAQGVGVPVEHALRMQAVARQTNTVFGIRPVERIVTTLIEEGFPTKGFSVKGKSSNWGPQAGFICVDQHLSKREDRDTAEIRKLNLAVAKGMDGGAYTQTDLRISRQRLAELVRNFGLVADGVGPVRLLTAQGPSGKRYEFEARQEADGLYRISRLGRSEAVQVLASPACGLAMTADYDLFLVAPSIEAHGSGGLDARRNTAVRYTPLGAKDPLSEDGFYGREDMARGNITPRTRQLVDALNDCLGRGEHREMFHHSDDAGNPGSHMGDNFPATFYLPRAMEHRVGEESVRFDEVCVVADRKSFSLLVECIKGNGYAFTAHPDWNVPLRPGFQEALDFFQRKV	~8 fold decrease
Pa-ExoY (20-378) 3 Mut (F367A-L371A-F374A) (enzyme) LLRPADMQARALQDLFDAQGVGVPVEHALRMQAVARQTNTVFGIRPVERIVTTLIEEGFPTKGFSVKGKSSNWGPQAGFICVDQHLSKREDRDTAEIRKLNLAVAKGMDGGAYTQTDLRISRQRLAELVRNFGLVADGVGPVRLLTAQGPSGKRYEFEARQEADGLYRISRLGRSEAVQVLASPACGLAMTADYDLFLVAPSIEAHGSGGLDARRNTAVRYTPLGAKDPLSEDGFYGREDMARGNITPRTRQLVDALNDCLGRGEHREMFHHSDDAGNPGSHMGDNFPATFYLPRAMEHRVGEESVRFDEVCVVADRKSFSLLVECIKGNGYHFTAHPDWNVPLRPGAQEAADFAQRKV	~12000 fold reduction
